Patent US20260158153A1, “BCMA MONOCLONAL ANTIBODY AND THE ANTIBODY-DRUG CONJUGATE” (priority 2021, published 2026)
One block for each molecule: values may come before it.

Columns and labels:
JJN-3 cell xenograft = test: Antitumor activity in vivo, JJN-3 cell xenograft mouse model of multiple myeloma; details: FIG. 10; single dose 5 mg/Kg
JJN-3 = test: MTT in vitro cytotoxicity assay of BCMA antibody conjugates, JJN-3; assay type: cell-based; details: Homo sapiens, 6000 cells, 96 h incubation, conjugates prepared via homogeneous conjugation process
Experimental: (§1) The cell lines used in the cytotoxicity assays were (1). NCI-H929, JJN3, U266, and MM1S were obtained from ATCC, and 8226-2A1cell is Myeloma antigen express cells through culturing and clone-picking of ATCC's RPMI-8226. The cells were grown according to the provider manuals. To run the assay, the cells (180 μl, 6000 cells) were added to each well in a 96-well plate and incubated for 24 hours at 37° C. with 5% CO2. Next, the cells were treated with test compounds (20 μl) at various concentrations in appropriate cell culture medium (total volume, 0.2 mL). The control wells contain cells and the medium but lack the test compounds. […] MTT (5 mg/mL) was then added to the wells (20 μl) and the plates were incubated for 1.5 hr at 37° C. The medium was carefully removed and DMSO (180 μl) was added afterward. After it was shaken for 15 min, the absorbance was measured at 490 nm and 570 nm with a reference filter of 620 nm. The inhibition % was calculated according to the following equation: inhibition %=[1−(assay-blank)/(control-blank)]×100.

NCI-H929 = test: MTT in vitro cytotoxicity assay of BCMA antibody conjugates, NCI-H929; assay type: cell-based; details: Homo sapiens, 6000 cells, 96 h incubation, conjugates prepared via homogeneous conjugation process
Experimental: as §1

MM1S = test: MTT in vitro cytotoxicity assay of BCMA antibody conjugates, MM1S; assay type: cell-based; details: Homo sapiens, MM1.S, 6000 cells, 96 h incubation, conjugates prepared via homogeneous conjugation process
Experimental: as §1

[1] = tested on: multiple myeloma (MM) patients; details: cited from earlier work
[2] = target: T1, Human B cell maturation antigen (BCMA, CD269) (human, UniProt Q02223 1-54); test: ELISA on recombinant TrxA-BCMA, OD450 against IgG concentration
T1 construct: Flow cytometry used whole BCMA on NCI-H929 and RPMI-8226-BCMA cells; also called hBCMA
T1 sequence: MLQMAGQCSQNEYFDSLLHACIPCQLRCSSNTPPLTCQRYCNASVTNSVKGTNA

[3] = target: T1, Human B cell maturation antigen (BCMA, …); test: ELISA, plate coated with 1 ug/ml soluble BCMA (recombinant TrxA-BCMA), OD450 against IgG concentration
[4] = target: T1, Human B cell maturation antigen (BCMA, …); test: flow cytometry on NCI-H929 cells with endogenous BCMA, PE anti-human IgG Fc secondary, MFI against concentration

Molecule: CC(=O)O[C@H]1C(=O)[C@@]2(C)[C@H]([C@H](OC(=O)c3ccccc3)[C@]3(O)C[C@H](OC(=O)[C@H](O)[C@@H](NC(=O)c4ccccc4)c4ccccc4)C(C)=C1C3(C)C)[C@]1(OC(C)=O)CO[C@@H]1C[C@@H]2O [Paclitaxel]
orders of the antitumor activity (JJN-3 cell xenograft): Paclitaxel<C-385
IC50 (JJN-3): 4.31 nM
IC50 (NCI-H929): 2.89 nM
IC50 (MM1S): 3.28 nM

Molecule: Belantamabmafodotin
overall response rate ([1]; for MM): 32%
patients reported ocular toxicities requiring dose adjustments, dose delays and treatment discontinuations ([1]; patients with this ADC): over 60%

B1: J6M0 (antibody, V domains shown)
VH: QVQLVQSGAEVKKPGSSVKVSCKASGGTFSNYWMHWVRQAPGQGLEWMGATYRGHSDTYYNQKFKGRVTITADKSTSTAYMELSSLRSEDTAVYYCARGAIYDGYDVLDNWGQGTLVTVSS
VL: DIQMTQSPSSLSASVGDRVTITCSASQDISNYLNWYQQKPGKAPKLLIYYTSNLHSGVPSRFSGSGSGTDFTLTISSLQPEDFATYYCQQYRKLPWTFGQGTKLEIK
EC50 (read off the curve) [2]: ~0.04 µg/mL
EC50 (read off the curve) [3]: ~0.06 µg/mL

B2: Humanized antibody hu5D2 (antibody, human IgG1, kappa, V domains shown)
VH: QVQLVQSGAEVVKPGASVKMSCKASGYTFTSFLIHWVKQAPGQGLEWIGFIIPGNGGTKYNQKFQGKATLTSDTSSSTAYMELSSLRSEDSAVYYCARYDGSFEGYFDVWGQGTTLTVSS
VL: DVVMTQSPLSLPVSLRQPASISCRSSQSLVHSDGNTYLHWYLQKPGQSPRLLIYKVSNRDSGVPDRFSGSGSGTDFTLKISRVEAEDLGVYFCSQSTHWPWTFGQGTKLEIKR
modifications: N-linked glycan at Asn300
notes: also called Hu5D2 antibody; BCMA antibody
EC50 (read off the curve) [3]: ~0.02 µg/mL
EC50 (read off the curve) [4]: ~0.05 µg/mL

The next lines start with the values.

EC50 (read off the curve) [3]: ~0.05 µg/mL
B3: c5D2 (antibody, human IgG1, kappa, V domains shown)
VH: EVQLQQSGPELVKPGASVKMSCKASGYTFTSFLIHWVKQKPGQGLEWIGFIIPYNDGTKYNEKFKGKATLTSDKSSSTAYMELSSLTSEDSAVYYCARYDGSFEGYFDVWGAGTTLTVSS
VL: DVLMTQTPLSLPVSLRDQASISCRSSQSLVHSDGNTYLHWYLQKPGQSPKLLIYKVSNRFSGVPDRFSGSGSGTDFTLKISRVEAEDLGVYFCSQSTHVPWTFGGGTKLEIKT
notes: VH/VL of BCMA-A2-6H4-5D2 fused to human IgG1 and kappa constant domains; also called chimeric antibody c5D2

EC50 (read off the curve) [4]: ~0.06 µg/mL
B4: hu5D2-Tub (antibody, human IgG1, kappa, V domains shown)
VH: QVQLVQSGAEVVKPGASVKMSCKASGYTFTSFLIHWVKQAPGQGLEWIGFIIPGNGGTKYNQKFQGKATLTSDTSSSTAYMELSSLRSEDSAVYYCARYDGSFEGYFDVWGQGTTLTVSS
VL: DVVMTQSPLSLPVSLRQPASISCRSSQSLVHSDGNTYLHWYLQKPGQSPRLLIYKVSNRDSGVPDRFSGSGSGTDFTLKISRVEAEDLGVYFCSQSTHWPWTFGQGTKLEIKR
modifications: conjugated to a tubulysin analog payload; sites and drug/antibody ratio of the lot used in Fig. 3 are not given
notes: Antibody-drug conjugate of hu5D2; also called hu5D2 conjugated ADC; hu5D2-tub196

EC50 (read off the curve) [2]: ~0.09 µg/mL
EC50 (read off the curve) [3]: ~0.01 µg/mL
B5: Hybridoma monoclonal antibody BCMA-A2-6H4-5D2 (antibody, V domains shown)
VH: EVQLQQSGPELVKPGASVKMSCKASGYTFTSFLIHWVKQKPGQGLEWIGFIIPYNDGTKYNEKFKGKATLTSDKSSSTAYMELSSLTSEDSAVYYCARYDGSFEGYFDVWGAGTTLTVSS
VL: DVLMTQTPLSLPVSLRDQASISCRSSQSLVHSDGNTYLHWYLQKPGQSPKLLIYKVSNRFSGVPDRFSGSGSGTDFTLKISRVEAEDLGVYFCSQSTHVPWTFGGGTKLEIK
notes: Murine hybridoma antibody from BalB/c mice; also called clone BCMA-A2-6H4-5D2; CCTCC C2022188
